Columns and labels:
[1] = molecular target: T1, human IL-17 receptor (IL-17RA) on transfected cells (human), Q96F46; assay: saturation binding, iodinated cytokine on transfected BHK cells; saturation binding, iodinated hIL-17F on hIL-17RA BHK cells; settings: remark: other sources report otherwise
[2] = molecular target: T1, human IL-17 receptor (IL-17RA) on …; assay: saturation binding, iodinated cytokine on transfected BHK cells; saturation binding; fold comparison with the other Kd values of Table 1; settings: remark: other sources report otherwise

T1 sequence (Q96F46 33-320 limits assumed): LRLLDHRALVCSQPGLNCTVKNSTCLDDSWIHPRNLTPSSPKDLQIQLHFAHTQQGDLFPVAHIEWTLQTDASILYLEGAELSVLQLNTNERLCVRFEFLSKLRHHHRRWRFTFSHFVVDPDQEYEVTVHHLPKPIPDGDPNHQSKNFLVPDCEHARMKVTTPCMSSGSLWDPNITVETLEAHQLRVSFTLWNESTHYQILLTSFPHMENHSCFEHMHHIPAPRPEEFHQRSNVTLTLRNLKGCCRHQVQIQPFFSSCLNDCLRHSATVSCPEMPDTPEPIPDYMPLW

Kd [1]: 1500 nM
fold lower affinity relative to the other affinities measured [2]: 1000 fold
B1: human IL-17F, Q96PD4 31-163 (ligand)
chain: RKIPKVGHTFFQKPESCPPVPGGSMKLDIGIINENQRVSMSRNIESRSTSPWNYTVTWDPNRYPSEVVQAQCRNLGCINAQGKEDISMNSVPIQQETLVVRRKHQGCSVSFQLEKVLVTVGCTCVTPVIHHVQ
